Measured values reported in article PMC5290273 (Nature Communications, 2017).
Positions count from the first letter of the chain named. Names and notes keep the numbering of the source. No end group written: not given here. *: point of attachment. 5FAM = O=C1OC2(c3ccc(O)cc3Oc3cc(O)ccc32)c2ccc(C(=O)*)cc21; GABA = NCCCC(=O)O

T1: Sumo-ELL2^Occ (human, UniProt O00472 519-640)
T1 sequence (looked up): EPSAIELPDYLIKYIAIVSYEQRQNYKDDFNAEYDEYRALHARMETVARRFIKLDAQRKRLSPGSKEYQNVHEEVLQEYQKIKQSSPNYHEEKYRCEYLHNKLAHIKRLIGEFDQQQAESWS

T2: Sumo-ELL2^Occ, wild type (human, UniProt O00472 519-640)
T2 sequence (looked up): T1 sequence (looked up)

T3: ELL2^Occ (ELL2 residues 519–640), the ELL2 part of the crystallised fusion (human, UniProt O00472 519-640, selenomethionine (SeMet crystals used for phasing and refinement))
T3 sequence (looked up): T1 sequence (looked up)

B1: AFF4 WT, 318-350 peptide (peptide, UniProt Q9UHB7 318-350, looked up)
peptide: EILKEMTHSWPPPLTAIHTPCKTEPSKFPFPTK
B2: His6-AFF4^ELLBow L331D (domain or fragment, human, UniProt Q9UHB7 301-351, looked up)
chain: PSQPLDASASGDVSCVDEILKEMTHSWPPPDTAIHTPCKTEPSKFPFPTKE
B3: His6-tagged wild-type AFF4^ELLBow (AFF4 301–351) (peptide, UniProt Q9UHB7 301-351, looked up)
chain: B2 chain with D31L
B4: AFF4^ELLBow (AFF4 residues 301–351), the AFF4 part of the crystallised fusion (domain or fragment, human, UniProt Q9UHB7 301-351, looked up)
chain: B2 chain with D31L
modifications: not fully specified (residue 23); cysteine pairing not given here
B5: His6-AFF4^ELLBow P342D (domain or fragment, human, UniProt Q9UHB7 301-351, looked up)
chain: B2 chain with D31L, P42D
B6: GST-ELL2 (519–640) H608E (domain or fragment, human, UniProt O00472 519-640, looked up)
chain: T1 sequence (looked up) with H90E
B7: GST-ELL2 (519–640) H559E (domain or fragment, human, UniProt O00472 519-640, looked up)
chain: T1 sequence (looked up) with H41E
B8: His6-AFF4^ELLBow I319D/L320D (domain or fragment, human, UniProt Q9UHB7 301-351, looked up)
chain: B2 chain with I19D, L20D, D31L
B9: His6-AFF4^ELLBow E322H (domain or fragment, human, UniProt Q9UHB7 301-351, looked up)
chain: B2 chain with E22H, D31L
B10: GST-ELL2 (519–640) K625T (domain or fragment, human, UniProt O00472 519-640, looked up)
chain: T1 sequence (looked up) with K107T
B11: His6-AFF4^ELLBow K321P (domain or fragment, human, UniProt Q9UHB7 301-351, looked up)
chain: B2 chain with K21P, D31L
B12: His6-AFF4^ELLBow V316D (domain or fragment, human, UniProt Q9UHB7 301-351, looked up)
chain: B2 chain with V16D, D31L
B13: His-tagged AFF4^ELLBow (301–351) P342D (peptide, UniProt Q9UHB7 301-351, looked up)
chain: B2 chain with D31L, P42D
B14: His-tagged AFF4^ELLBow (301–351) E322H (peptide, UniProt Q9UHB7 301-351, looked up)
chain: B2 chain with E22H, D31L
B15: His6-AFF4^ELLBow D317P/E318P (domain or fragment, human, UniProt Q9UHB7 301-351, looked up)
chain: B2 chain with D17P, E18P, D31L
B16: His-tagged AFF4^ELLBow (301–351) W327D (peptide, UniProt Q9UHB7 301-351, looked up)
chain: B2 chain with W27D, D31L
B17: His6-AFF4^ELLBow T332K (domain or fragment, human, UniProt Q9UHB7 301-351, looked up)
chain: B2 chain with D31L, T32K
B18: His-tagged AFF4^ELLBow (301–351) L331D (peptide, UniProt Q9UHB7 301-351, looked up)
chain: B2 chain
B19: His6-AFF4^ELLBow L331D/I334D (domain or fragment, human, UniProt Q9UHB7 301-351, looked up)
chain: B2 chain with I34D
B20: His6-AFF4^ELLBow W327D (domain or fragment, human, UniProt Q9UHB7 301-351, looked up)
chain: B2 chain with W27D, D31L
B21: His-tagged AFF4^ELLBow (301–351) I319D/L320D/M323D (peptide, UniProt Q9UHB7 301-351, looked up)
chain: B2 chain with I19D, L20D, M23D, D31L
B22: His6-AFF4^ELLBow I334D (domain or fragment, human, UniProt Q9UHB7 301-351, looked up)
chain: B2 chain with D31L, I34D
B23: His-tagged AFF4^ELLBow (301–351) F345D/F347D (peptide, UniProt Q9UHB7 301-351, looked up)
chain: B2 chain with D31L, F45D, F47D
B24: His6-AFF4^ELLBow M323D (domain or fragment, human, UniProt Q9UHB7 301-351, looked up)
chain: B2 chain with M23D, D31L
B25: His6-AFF4^ELLBow F345D/F347D (domain or fragment, human, UniProt Q9UHB7 301-351, looked up)
chain: B2 chain with D31L, F45D, F47D
B26: His-tagged AFF4^ELLBow (301–351) I334D (peptide, UniProt Q9UHB7 301-351, looked up)
chain: B2 chain with D31L, I34D
B27: His-tagged AFF4^ELLBow (301–351) I319D/L320D (peptide, UniProt Q9UHB7 301-351, looked up)
chain: B2 chain with I19D, L20D, D31L
B28: His-tagged AFF4^ELLBow (301–351) M323D (peptide, UniProt Q9UHB7 301-351, looked up)
chain: B2 chain with M23D, D31L
B29: His-tagged AFF4^ELLBow (301–351) double 328–329 Pro–Gly mutant (peptide, UniProt Q9UHB7 301-351, looked up)
chain: B2 chain with P28G, P29G, D31L
B30: fluorescently labelled AFF1^ELLBow peptide 358–390 (peptide)
peptide: {5FAM-GABA}-EILKEMTHSWPPPLTAIHTPSTAEPSKFPFPTK-NH2
SMILES: CC[C@H](C)[C@H](NC(=O)[C@H](C)NC(=O)[C@@H](NC(=O)[C@H](CC(C)C)NC(=O)[C@@H]1CCCN1C(=O)[C@@H]1CCCN1C(=O)[C@@H]1CCCN1C(=O)[C@H](Cc1c[nH]c2ccccc12)NC(=O)[C@H](CO)NC(=O)[C@H](Cc1c[nH]cn1)NC(=O)[C@@H](NC(=O)[C@H](CCSC)NC(=O)[C@H](CCC(=O)O)NC(=O)[C@H](CCCCN)NC(=O)[C@H](CC(C)C)NC(=O)[C@@H](NC(=O)[C@H](CCC(=O)O)NC(=O)CCCNC(=O)c1ccc2c(c1)C(=O)OC21c2ccc(O)cc2Oc2cc(O)ccc21)[C@@H](C)CC)[C@@H](C)O)[C@@H](C)O)C(=O)N[C@@H](Cc1c[nH]cn1)C(=O)N[C@H](C(=O)N1CCC[C@H]1C(=O)N[C@@H](CO)C(=O)N[C@H](C(=O)N[C@@H](C)C(=O)N[C@@H](CCC(=O)O)C(=O)N1CCC[C@H]1C(=O)N[C@@H](CO)C(=O)N[C@@H](CCCCN)C(=O)N[C@@H](Cc1ccccc1)C(=O)N1CCC[C@H]1C(=O)N[C@@H](Cc1ccccc1)C(=O)N1CCC[C@H]1C(=O)N[C@H](C(=O)N[C@@H](CCCCN)C(N)=O)[C@@H](C)O)[C@@H](C)O)[C@@H](C)O
notes: also called fluorescent peptide

What was measured:
[1] = target: Sumo-ELL2^Occ, wild type (human) (UniProt O00472); experiment: fluorescence polarisation
[2] = target: AFF4, endogenous (human (endogenous in HEK 293T)) (UniProt Q9UHB7)
Chain of AFF4, endogenous (human (endogenous in HEK 293T)) (Q9UHB7 whole entry): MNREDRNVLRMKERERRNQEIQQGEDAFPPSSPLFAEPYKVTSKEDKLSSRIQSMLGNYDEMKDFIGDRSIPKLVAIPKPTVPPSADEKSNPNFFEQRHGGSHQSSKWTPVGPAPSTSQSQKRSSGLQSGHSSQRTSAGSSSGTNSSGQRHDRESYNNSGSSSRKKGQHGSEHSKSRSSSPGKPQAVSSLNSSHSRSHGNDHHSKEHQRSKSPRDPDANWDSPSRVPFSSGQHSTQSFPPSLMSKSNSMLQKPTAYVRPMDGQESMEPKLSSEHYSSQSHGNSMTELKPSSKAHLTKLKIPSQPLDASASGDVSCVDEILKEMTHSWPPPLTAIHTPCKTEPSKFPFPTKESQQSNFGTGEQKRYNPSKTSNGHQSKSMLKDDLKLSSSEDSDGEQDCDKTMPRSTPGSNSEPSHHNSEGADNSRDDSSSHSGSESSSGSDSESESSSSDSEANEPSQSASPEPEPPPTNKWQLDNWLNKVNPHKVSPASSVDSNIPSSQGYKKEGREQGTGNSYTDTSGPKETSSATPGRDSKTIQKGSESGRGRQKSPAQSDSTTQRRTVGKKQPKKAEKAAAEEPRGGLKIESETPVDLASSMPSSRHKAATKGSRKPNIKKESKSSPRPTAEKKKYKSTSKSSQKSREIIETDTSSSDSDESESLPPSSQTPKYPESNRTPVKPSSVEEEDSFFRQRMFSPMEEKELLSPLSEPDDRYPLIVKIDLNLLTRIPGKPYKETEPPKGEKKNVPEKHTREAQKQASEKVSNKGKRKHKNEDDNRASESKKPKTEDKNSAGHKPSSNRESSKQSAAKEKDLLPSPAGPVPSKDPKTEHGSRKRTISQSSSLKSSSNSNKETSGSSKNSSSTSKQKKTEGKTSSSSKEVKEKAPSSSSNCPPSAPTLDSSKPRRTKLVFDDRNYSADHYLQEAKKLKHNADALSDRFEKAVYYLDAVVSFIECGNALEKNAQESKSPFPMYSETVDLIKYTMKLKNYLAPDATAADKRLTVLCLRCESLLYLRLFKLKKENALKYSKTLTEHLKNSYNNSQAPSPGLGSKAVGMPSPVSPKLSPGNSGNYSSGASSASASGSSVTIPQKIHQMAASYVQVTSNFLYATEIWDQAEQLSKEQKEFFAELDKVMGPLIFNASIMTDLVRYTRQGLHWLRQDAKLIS

Sumo-ELL2^Occ (human) = Sumo-ELL2^Occ (human) (UniProt O00472); experiment: fluorescence polarisation
[3] = target: ELL2^Occ–(Gly-Ser)4–AFF4^ELLBow (human) (UniProt O00472); experiment: SEC; Hiload 16/60 (GE) gel filtration; elution volumes; 44 kDa and 17 kDa markers shown in panel a
Sumo-ELL2^Occ = target: T1, Sumo-ELL2^Occ; experiment: fluorescence polarisation; conditions: both partners purified
Sumo-ELL2^Occ, wild type = target: T2, Sumo-ELL2^Occ, wild type; experiment: fluorescence polarisation; conditions: both partners purified
[4] = target: T3, ELL2^Occ (ELL2 residues 519–640), the …; experiment: crystal structure; conditions: both partners purified
[5] = target: B3; experiment: pull-down; conditions: both partners purified

## His-tagged AFF4^ELLBow (301–351) D317P/E317P (from UniProt Q9UHB7 301-351) (peptide)
[1]
  other: 10 fold

## HA-tagged ELL2^H559E/H608E/N619A/K625T (from UniProt O00472 1-640) (natural protein)
[2]
  other (fold less than wild type): 5

## His6-AFF4^ELLBow P328G/P329G (from UniProt Q9UHB7 301-351) (domain or fragment)
Sumo-ELL2^Occ (human)
  Kd: 270 nM

## ELL2^Occ–(Gly-Ser)4–AFF4^ELLBow (from UniProt O00472 519-640; Q9UHB7 301-351)
[3]
  stoichiometry N: 2

## B1
Sumo-ELL2^Occ
  Kd: 4000 ± 1570 nM

## B2
Sumo-ELL2^Occ
  Kd: 1600 ± 310 nM

## B3
Sumo-ELL2^Occ, wild type
  Kd: 86 nM

## B4
[4]
  binding result: binds

## B5
Sumo-ELL2^Occ
  Kd: 200 ± 50 nM

## B6
[5]
  binding result: binds

## B7
[5]
  binding result: binds

## B8
Sumo-ELL2^Occ
  Kd: 5400 ± 1870 nM

## B9
Sumo-ELL2^Occ
  Kd: 130 ± 33 nM

## B10
[5]
  binding result: binds

## B11
Sumo-ELL2^Occ
  Kd: 240 ± 60 nM

## B12
Sumo-ELL2^Occ
  Kd: 230 ± 48 nM

## B13
Sumo-ELL2^Occ, wild type
  other: ~3 fold

## B14
Sumo-ELL2^Occ, wild type
  other: < 2 fold

## B15
Sumo-ELL2^Occ
  Kd: 800 ± 180 nM

## B16
Sumo-ELL2^Occ, wild type
  other: 4 fold

## B17
Sumo-ELL2^Occ
  Kd: 69 ± 37 nM

## B18
Sumo-ELL2^Occ, wild type
  other: ~20 fold

## B19
Sumo-ELL2^Occ
  Kd: 1900 ± 510 nM

## B20
Sumo-ELL2^Occ
  Kd: 370 ± 86 nM

## B21
Sumo-ELL2^Occ, wild type
  Kd: > 3000 nM

## B22
Sumo-ELL2^Occ
  Kd: 670 ± 210 nM

## B23
Sumo-ELL2^Occ, wild type
  other: < 2 fold

## B24
Sumo-ELL2^Occ
  Kd: 2700 ± 1140 nM

## B25
Sumo-ELL2^Occ
  Kd: 130 ± 58 nM

## B26
Sumo-ELL2^Occ, wild type
  other: 8 fold

## B27
Sumo-ELL2^Occ, wild type
  other: > 25 fold

## B28
Sumo-ELL2^Occ, wild type
  other: > 25 fold

## B29
Sumo-ELL2^Occ, wild type
  other: 3 fold

## B30
Sumo-ELL2^Occ, wild type
  binding result: binds
